Where two headings read alike, the source gives them in different places.
Key:
Assay in all cases: BLI, mAb on anti-human Fc probe, antigen in solution
[1] = target: T1, SARS-CoV-2 receptor binding domain (RBD) (SARS-CoV-2, UniProt P0DTC2 319-591)
[2] = target: T1, SARS-CoV-2 receptor binding domain (RBD); remark: listed apart in the source
[3] = target: T1, SARS-CoV-2 receptor binding domain (RBD); remark: listed apart in the source
[4] = target: T1, SARS-CoV-2 receptor binding domain (RBD); remark: listed apart in the source
[5] = target: T1, SARS-CoV-2 receptor binding domain (RBD); remark: listed apart in the source
[6] = target: T1, SARS-CoV-2 receptor binding domain (RBD); remark: listed apart in the source
[7] = target: T1, SARS-CoV-2 receptor binding domain (RBD); remark: listed apart in the source
[8] = target: T1, SARS-CoV-2 receptor binding domain (RBD); remark: listed apart in the source
[9] = target: T1, SARS-CoV-2 receptor binding domain (RBD); remark: listed apart in the source
[10] = target: T1, SARS-CoV-2 receptor binding domain (RBD); remark: listed apart in the source
[11] = target: T1, SARS-CoV-2 receptor binding domain (RBD); remark: listed apart in the source
[12] = target: T1, SARS-CoV-2 receptor binding domain (RBD); remark: listed apart in the source
[13] = target: T1, SARS-CoV-2 receptor binding domain (RBD); remark: listed apart in the source
[14] = target: T1, SARS-CoV-2 receptor binding domain (RBD); remark: listed apart in the source
[15] = target: T1, SARS-CoV-2 receptor binding domain (RBD); remark: listed apart in the source
[16] = target: T1, SARS-CoV-2 receptor binding domain (RBD); remark: listed apart in the source
[17] = target: T1, SARS-CoV-2 receptor binding domain (RBD); remark: listed apart in the source

B1: CV2-39 (antibody, V domains shown)
VH: EVQLVESGGGLVQPGGSLRLSCSASGFTFSSYAMHWVRQAPGKGLEYVSGISSNGGSTYYADSVKGRITISRDNSKKTLYLQMSSLRAEDTAVYYCVKSSSRGYYWGQGTLVTVSS
VL: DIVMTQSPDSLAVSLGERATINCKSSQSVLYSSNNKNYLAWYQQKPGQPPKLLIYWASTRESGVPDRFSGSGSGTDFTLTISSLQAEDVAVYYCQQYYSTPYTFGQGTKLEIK
notes: expressed as IgG
Q: Does B1 bind [1]?
A: Result: no binding

B2: CV2-28 (antibody, V domains shown)
VH: QLQLQESGPGLVKPSETLSLTCTVSGGSVSSNAYYWGWIRQPPGKGLEWIGSVNYRGSTYYIPTLKSRITISVNTSKNQFSLKLTSVTAADTAVYYCARRGVALVTITYFDFWGQGALVTVSS
VL: QSVLTQPPSVSGAPGQRVTITCTGSSSNIGSGYDVHWYQQLPGTAPKLLIYGNTNRPSGVPDRFSGSKSGTSASLAITGLQAEDEAHYYCQSYDSSVVFGGGTKLTVL
notes: expressed as IgG
Q: Does B2 bind [2]?
A: Result: no binding

B3: CV2-29 (antibody, V domains shown)
VH: QVQLVESGGGVVQPGRSLRLSCAASGFTFSTYAMHWVRQAPGKGLEWVAVISYDGSNKYYADSVKGRFTISRDNSKNTLYLQMNSLRAEDTAVYYCARAYGGSYFYGMDVWGQGTTVTVSS
VL: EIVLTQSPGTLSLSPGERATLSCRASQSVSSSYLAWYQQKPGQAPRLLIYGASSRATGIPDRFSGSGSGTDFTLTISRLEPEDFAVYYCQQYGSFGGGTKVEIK
notes: expressed as IgG
Q: Does B3 bind [3]?
A: Result: no binding

B4: CV2-25 (antibody, V domains shown)
VH: EVQLVQSGAEVKKPGESLRISCKGSGYSFTSYWISWVRQMPGKGLEWMGKIDPSDSYTNYSPSFQGHVTISADKSISTAYLQWSSLKASDTAMYYCARQFGGELLGWFDPWGQGTLVTVSS
VL: DIQMTQSPSSLSASVGDRVTITCRASQGISNYLAWYQQKPGKVPKLLIYAASTLQSGVPSRFSGSGSGTDFTLTISSLQPEDVATYYCQKYNSAPFTFGPGTKVDIK
notes: expressed as IgG
Q: Does B4 bind [4]?
A: Result: no binding

B5: CV2-32 (antibody, V domains shown)
VH: EVQLVESGGGLVQPGRSLRLSCTASGFTFGDYAMSWFRQAPGKGLEWVGFIRSKAYGGTTEYAASVKGRFTISRDDSKSIAYLQMNSLKTEDTAVYYCTMVWQQLHDAFDIWGQGTMVTVSS
VL: SYELTQPPSVSVSPGQTARITCSGDALPKQYAYWYQQKPGQAPVLVIYKDSERPSGIPERFSGSSSGTTVTLTISGVQAEDEADYYCQSADSSGTYSWVFGGGTKLTVL
notes: expressed as IgG
Q: Does B5 bind [5]?
A: Result: no binding

B6: CV2-27 (antibody, V domains shown)
VH: QLQLQESGPGLVKPSETLSLTCTVSGGSISSSSYYWGWIRQPPGKGLEFIGSIYYSGSTYYNPSLKSRVTISVDTSKNQFSLKLSSVTAADTAVYYCATQEVVLVRPYNYNGMDVWGQGTTVTVSS
VL: QSALTQPASVSGSPGQSITLSCTGTSSDVGGYNYVSWYQQHPGKAPKLMIYEVSNRPSGVSNRFSGSKSGNTASLTISGLQAEDEADYYCSSYTSISTLVFGTGTKVTVL
notes: expressed as IgG
Q: Does B6 bind [6]?
A: Result: no binding

B7: CV2-38 (antibody, V domains shown)
VH: QVQLVQSGAEVKKPGSSVKVSCKASGGTFSSYAISWVRQAPGQGLEWMGGIIPIFGTANYAQKFQGRVTITADESTSTAYMELSSLRSEDTAVYYCASARFITMVRGVINIYYYGMDVWGQGTTVTVSS
VL: QSALTQPASVSGSPGQSITISCTGTSSDVGGYNYVSWYQQHPGKAPKLMIYEVSNRPSGVSNRFSGSKSGNTASLTISGLQAEDEADYYCSSYTSSSTLLFGGGTKLRSC
notes: expressed as IgG
Q: Does B7 bind [7]?
A: Result: no binding

B8: CV9 (antibody, V domains shown)
VH: QLQLQESGPGLVKPSETLSLTCTVSGGSISSSSYYWGWIRQPPGKGLEWIGSIYYSGSTYYNPSLKSRVTISVDTSKNQFSLKLSSVTAADTAVYYCATHIVVVTATPNWYFDLWGRGTLVTVSS
VL: QSALTQPASVSGSPGQSITISCTGTSSDVGGYNYVSWYQQHPGKAPKLMIYDVSNRPSGVSNRFSGSKSGNTASLTISGLQAEDEADYYCSSYTSISTWVFGGGTKLTVL
notes: expressed as IgG
Q: Does B8 bind [8]?
A: Result: no binding

B9: CV2-23 (antibody, V domains shown)
VH: QVQLVESGGGVVQPGRSLRLSCAASGFTFNSFAMHWVRQAPGKGLEWVAVISYDGNNKYYADSVKGRFTISRDNSKNTLYLQMNSLRAEDTAVYYCARDRSGGYSCFDYWGQGTLVTVSS
VL: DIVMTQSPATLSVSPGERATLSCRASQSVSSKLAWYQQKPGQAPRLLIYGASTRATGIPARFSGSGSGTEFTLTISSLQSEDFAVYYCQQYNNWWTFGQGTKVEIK
notes: expressed as IgG
Q: Does B9 bind [9]?
A: Result: no binding

B10: CV2-26 (antibody, V domains shown)
VH: QVQLVESGGGVVQPGRSLRLSCAAAGFIFSSYAMNWVRQAPGKGLEWVAVISYDGSNKYYADSVKGRFTISRDNSKNTLNLQMNSLRAEDTAVYYCARGNGYIIIDYWGQGTLVTVSS
VL: QLVLTQSPSASASLGASVKLTCTLSSGHSSYAIAWHQQQPEKGPRYLMKFNSDGTHSKGDGIPDRFSGSSSGAERSLTISSLQSEDEADYYCQTWGTGGVFGGGTKLTVL
notes: expressed as IgG
Q: Does B10 bind [10]?
A: Result: no binding

B11: CV2-22 (antibody, V domains shown)
VH: QVQLVESGGGVVQPGRSLRLSCAASGFTFSSYGMHWVRQAPGKGLEWVAVISYDGSNKYYADSVKGRFTISRDNSKNTLYLQMNSLRAEDTALYYCASEIVSFIGSSEDYWGQGTLVTVSS
VL: SYELTQPPSVSVSPGQTARITCSGDALPKKYAYWYQQKSGQAPVLVIYEDSKRPSGIPERFSGSSSGTMATLTISGAQVEDEADYCCYSTDSSDNHRRVFGTGTKVTVL
notes: expressed as IgG
Q: Does B11 bind [11]?
A: Result: no binding

B12: CV2-37 (antibody, V domains shown)
VH: QVQLVQSGAEVKKPGASVKVSCRASGYTFTNFGISWVRQAPGLGLEWMGWISTYNGNTNYAQKLQGRVTMTTDTSTSTAYMELRSLRSDDTAVYYCARASGPYLLGLYWGQGTLVTVSS
VL: QSVLTQPPSVSGAPGQRVTISCTGSSSNIGAGYDVHWYQQLPGTAPKLLIYGNSNRPSGVPDRFSGSKSGTSASLAITGLQAEDEADYYCQSYDSSLSDVVFGGGTKLTVL
notes: expressed as IgG
Q: Does B12 bind [12]?
A: Result: no binding

B13: CV2-34 (antibody, V domains shown)
VH: QVQLVESGGGVVQPGRSLRLSCAASRFTFSTYAMHWVRQAPGKGLEWVTVISYDGDNKYYADSVKGRFTISRDNSKNTLYLQMNSLRTEDTAVYYCTRAGSGSYLSYFDYWGQGTLVTVSS
VL: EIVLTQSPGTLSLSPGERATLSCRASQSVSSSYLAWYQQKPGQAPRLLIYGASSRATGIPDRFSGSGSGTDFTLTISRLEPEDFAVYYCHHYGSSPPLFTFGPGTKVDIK
notes: expressed as IgG
Q: Does B13 bind [13]?
A: Result: no binding

B14: CV2-24 (antibody, V domains shown)
VH: EVQLVESGGGLVKPGGSLRLSCAASGFTFSSYSMNWVRQAPGKGLEWVSSISSTSNYIYYADSVKGRFTISRDNAKNSLYLQMNSLRAEDTAVYYCARVSPNYDFWSGYYPDAFDIWGQGTMVTVSS
VL: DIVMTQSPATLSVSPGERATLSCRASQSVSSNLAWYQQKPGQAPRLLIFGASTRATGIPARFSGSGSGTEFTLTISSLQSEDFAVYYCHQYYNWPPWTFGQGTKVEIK
notes: expressed as IgG
Q: Does B14 bind [14]?
A: Result: no binding

B15: CV2-35 (antibody, V domains shown)
VH: EVQLVESGGGLVQPGGSLRLSCAASGFTFSNCWMSWVRQAPGKGLEWVANIKQDGSEKYYVDSVKGRFTISRDNAKNSLYLQMNSLRAEDTAVYYCARMGNTAWYFDLWGRGTLVTVSS
VL: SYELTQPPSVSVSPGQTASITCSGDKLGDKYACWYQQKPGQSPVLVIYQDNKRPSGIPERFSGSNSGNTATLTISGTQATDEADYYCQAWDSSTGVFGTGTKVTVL
notes: expressed as IgG
Q: Does B15 bind [15]?
A: Result: no binding

B16: CV2-30 (antibody, V domains shown)
VH: QVQLVQSGAEVKKPGSSVKVSCKASGGTFSSYAITWVRQAPGQGLEWMGGIIPIFGTANYAQKFQGRVTITADESTNTAYMELSSLTSEDTAVYYCAKIGDYDSSGYYFDYWAQGTLVTVSS
VL: EIVLTQSPATLSLSPGERATLSCRASQSVSSFLAWYQQKPGQAPRLLIYDASNRATGIPARFSGSGSGTDFTLTISSLEPEDFAVYYCQQRSNWPPSITFGQGTRLEIK
notes: expressed as IgG
Q: Does B16 bind [16]?
A: Result: no binding

B17: CV2-33 (antibody, V domains shown)
VH: QVQLVQSGAEVKKPGSSVKVSCKASGGTFSSYAISWVRQAPGQGLEWMGGIIPIFGTANYAQKFQGRVTITADESTSTAYMELSSLRSEDTAVYYCARISSYDSSGYSMDVWGQGTTVTVSS
VL: EIVLTQSPATLSLSPGERATLSCRASQSVSSYLAWYQQKPGQAPRLLIYDASNRATGIPARFSGSGSGTDFTLTISSLEPEDFAVYYCQQRSNWPPRVTFGPGTKVDIK
notes: expressed as IgG
Q: Does B17 bind [17]?
A: Result: no binding

Reference: patent US20230212266A1 (FRED HUTCHINSON CANCER CENTER, published 2023)
